Experimental data from patent US20240026407A1, “MODIFICATION OF SAPONINS” (GLAXOSMITHKLINE BIOLOGICALS SA, priority 2020, published 2024).

B1: 1042 (protein, listed as Streptomyces scabiei)
chain: MNPTAPAEQTPTDITVSVTGLRTADDSGLVATAHAMPRLSWSLTGTRPGILQHAYEIQVSGAPSFDDTTSSGQVESGTVTDHPWPAQPLSSRETRHWRVRVRTDRGWTRWSDPARVEGALLDAVDWAARPVHVPSDRGRPSPGPVPLLRREFHLPAEPVSARLYVTSLGVHRTTLNGRPVSADLLEPGWTSYPDRLLYATYDVTGLLRPGPNALAAAVGDGWFRGHLTWHKNRDVYGDTTGLLAQLEVDLTDGTRVTVITDGRWKGGYGDLLSADLYDGCERDLRAEPHGWQLPGFADDGWEPVAVLPLPEGLGQRAHPPVRVVRTVRPRLRTLADGTIAVDAGENVTGRLRIRADGRPGGTVTVRHAEVLDGDGRLLTSILRGARATDRYTLAEGPADLTPEFTFHGFRYAEIDASPDVSVEAVEVEVVAGDLRRIGEFHCSDERVNTLYANVVRSQRGNFLAVPTDCPQRDERLGWTGDIMAFAPTACATFDSASFLDSRLTDLRIQQRPDGAVPMVVPDVPLGELPPAELPFAGAAAGWGDAATVVPAALFEAYGQPHLLERHYTAMRAWVEFTVAHLDEDGTWSGNAQLGDWLDPAAPPENPAAATTDSGYVATAFVAHSARLLADAARELGFPEDADRYTALHRRTAEAAWRKWGDHARTTQTGCALALEFGIAPAGERAEVGKALASLVRANGGRIATGFLGTPFVLPALGDTGHVAEAYELLLNPECPGWLHQVSRGATTMWERWDAIGPDGTVDVENAGTMLSFNHYAYGAVASWLYRSVAGLRPASPGYRTLDIAPRPGATLTSAEAAVDTPYGTASVAWSIGDGSLTVRAVLPPGTTGRFSAPEGWTCTEPVDALASGSHVLSLRPLTRP
B2: 1036 (protein, listed as Bacteroides cellulosilyticus)
chain: MNRYILFFFLILSTLTTLRAQQSRLVEVGNGYSQTSVNTTVFRNNSLVTQGDEQYISYYDGDGYLVLGKRKLDSDQWTLKRTQYKGNVKDAHNIISMMLDGEGYLHLSFDHHGHKLNYCRSTAPYTLELGDKEPMTGVDEGNVTYPEFYPLNGGDLLFVYRSGSSGRGNLVMNHYSVKEKKWNRVQDVLIDGEDQRNAYWQLYVDEQGTIHLSWVWRETWHVETNHDLCYARSYDNGVTWYKANGKKYDLPIRYNNAEYACRIPQNSELINQTSMSADASGNPYIATYWRDPDSEVPQYRIVWHDGQMWHNRQVSNRHTPFSLKGGGTKMIPIARPRIVVDGGEIFYIFRDEERGSRVSLAHAAAVGVGKWTFTDLTNFPVDAWEPSHDTELWKQKRRLHLFVQHTKQGDGERRVEFAPQPVYVLEVVKPKGD
B3: 1023 (protein)
chain: MNLFLSIFLFCSPLFLLGQSELNYPELLYPPQAIKANWVSHPDIQGGEDRIVLFRNEWMVDDPSEAFIINISADNHYFLYVNGNLVTHGPQLSDIRHWKYETIDLKTYLKTGKNLIAIKVVNYGKRRFYGMQSIFTSLMVNGATENAKVLNTSGTDDGWKCSIDDSYRALEVNWRGGGPKSIVGGFYANNPTDFVDKNHYPTDWEQPDFDDSDWVDTQFFEGASSMGGSMAYLLEPRNLPLLTWEKEGIGHTVRTSDIDVSEFPVSGKTVVPEHKKIRFLIDQKYVTNGFPELIFSKGKNAHIKIKYAENLFGPKNTKGDRNIIKGKELLGYYDHVVSNGKERQKFTPNWMRTFRFVEFEIETKGQELVLDSFSNYRSRTHIPSIARFSSNNETYNAIFDICKRTVDICTQDYFLSDAYYETMQYVGDTKIHALLWQAMSGNLAHTKNAIEQFHRSRDADGNILGAYPLRSTFIYPTYSLVWVDMVYDYYQLTNDTDFINTYKDGIIHTLAGFEKNMNELNLVNETQYRYFVDWYTGPNNGGGTATKNNGKNSAVVSLHYVHALQNAARLFKAIGDKHTADTYLDRATAIKSSVYKLCFDPNKNIFAERPDKTVYDQHTNIMAVLTDAIAESEQKALLSNILNDPKLLQATYYYRYYLFEAIKKVGAPELFDLAQRPWQAMIDNHMTTTLERFESDKKPTRSEVHPWSASPAYFYFNYLAGIKSVKNDFQEIEIAPVFGILEDMEGLLPTSKGNILFHLKKIRSKLSAEIIVPKEMSGELVWNEKHIPLKHGQHTYILK
modifications: Zobellia galactanivorans
B4: 1062 (protein, listed as Streptosporangium roseum)
chain: MIGNAVHCAPAQTSPSRSDPAPPRLTPYGLRCEHRQTPLGVGEPRPLLSWRLASARAGDDPVAYELEVGDWSSGRVEDPAAIGAVYGGPPLLPRTRYAWRVTVWARDGAEGSAESWFETGQDVWQASWIAHDPAAVAHMDPPTEGDQALSHHGLLPCPQLRTSFESTAGVTRARLLISAKGLYEARVNGHRAGDAELAPGWTDYRRRIQYQVHDVTPFLLDGENVLAATVADGWWSGFTGFDPRRPGYHYGRFPELIAELHLTFEDGSTRVVATGEGWRTGHGRVRYGDLLKGECHDARAETPGWDLPGFDDSSWRPAVVTGDDHSLLVASRDEPVRALGELLPVSSVLVRPGVHLVDFGQNIAGRVRLAVRDQEPGRRVTVRHGETLDGEDRLHTANLRTADATDVLITAGGAEEVFEPRFTYHGFRYAEVSGIDRLDDIRAIVLHSDTPWTGTFECSDPEINRLHDNIGWGQRGNFVSVPTDCPQRDERLGWLADAQVFLPTACFNADVSGFFSKWMRDVVDAQSPEGGFSNVAPLLSGVADEGAPGWADAGVLVPWHLYRVYGDDRFLDVDSMVRWVDFVARHNPDLIWRHRTGPHFADWLAPGPATPREVLATAFFHRSAALTAEAARVRGLYGEAERMGALADRVRAAFAAAFVGDGGLVEGDTQTGYLLALAFGLLTPEQGRGAAARLAALVEESGPLTGFLGVNLLCPVLSAHGRDDLAHALLRRTDPPSWLYQVRHGATTVWERWDGVGAASMNSFNHYAFGSIGEWLYSGVAGIAQAPGSVAFREVVIRPLPGDLSRAGASYESARGLISVSWHNDAEGFRLQTRIPPGATATVHLPGGETRRVTSGDHIFELVRGEKA
B5: 1016 (protein, listed as Olsenella profusa)
chain: MRATNLTVACLTNPLGIDVRCPELAWIDEDGLSQSAYQVECKDGAGATLWDTGKVASASMRIAWPGAALASRERVTWRVRLWDDGDACGPWSEFASIEEGLLSADDWCARWISGNYDVPTPRAGALGNFRQMVAAMRPASPDQVVTEPILEGRYPVDCFCRAFVVGKAPVRARLYITACGLYEARIDGEKVGDLCMAPGHTDYRKRVQYQTYDVTAALATGAHELTVQLADGWYRGSCGAWGLLNQYGTQTKLLAQLEVTYADGHVDCVATDTDWQWSGDGPILFADNKDGEMVDATRAPSYAGHARDARHDVAPTASNNVPITMHERFSPAPALAPNGRLLFDLGQNIAGWVELDFDAHESQHVLLRCGEMLDADGNLTLKNIQCSREGFATPLQQVEYVCREGHNHYRTTFCVFGFRYVEVETNVQLGEGSLTAIALYSDMRQTGSFECSNELLNRFFESTVWSTKGNSLDVPTDCPTRERHGWSGDAQIFFETLSYLFDCRSFERKWLHDLFDWQKRDGRLPQVAPAGGVDSYMRFLDGSVGWADAGILIPYRYWRHYGDASVLAELYDGMRRYAEFMIRRCGRRGPFSKRVGIHGEAKKYLVNMGQCYGEWAEPADVHKMDWKDTVAPHPEVATAYTDYVLGCMAQIARELGHEEDEARYRQYSEGCRLAYQELSRLPEFSLDTDRQARLVRPLAFGLLDPQQTAYARKRLVKACESYGWRLGTGFLSTPLILDVLAKYDLDAAYRLLENEEMPGWLFMPKMGATTVWESWEGTQAQGGIASLNHYSKGAVCAWLFRVMCGIAPDGERHVTVAPRPGGRFAYAKAGYESPCGFVGCGWQRVEDGWRFAVEVPANCAATVVLPDGSTREVGAGVHEFECVARAAREG
B6: 1008 (protein, listed as Pedobacter heparinus)
chain: MNLKTTGIVLVLSTIVCFPCIAQKNLEQSFKVTPDTIQTSVYWYWMSDNISKDGVVKDLYAMKSAGINRAFIGNIGYETTPYGKVKLFSAEWWDIMHTALKTATNLNIEIGVFNSPGWSQSGGPWVKPAQAMRYLASTKANFVGPKQLNVQLEKPKGYFQDVRVIAYKTPKAYGNSIAVHKPKLSSSISVQNINNLIDGSENTTVDIPATESITIDLETSSSFTARSLVVYPAHKGLNVNVELQVKKNKEYVSVKTFSVNRTNSNLHVGFKPYGPVAVSIPPTIGHSFRLVFGKSGGFGLAEVVLSQTPVVESYTEKTLAKMFQSPLPYWNEYQWPDQPLIDDLSLVIDPKTVIDITTFMNAEGQLKWDLPAGNWTIMRTGMLPTGVKNGPASPEGTGLEIDKMSKEHVANHFDAFMGELLRRIPAADRKTWKVVVQDSYETGGQNWTDDMIEKFKASFHYDPLPYLPVIQGEVVGDQNQSDRFLWDLRRFIADRVAYDYVGGLRDISHKHGLTTWLENYGHWGFPGEFLQYGGQSDEIGGEFWSEGELGNIENRAASSAAHIYGKTKVSAESFTAGDKPYQRYPYIMKQRGDRFFTEGINNTLLHLFIQQPSEDKVPGINANFGNEFNRHNTWFSYIDLFTGYLKRTNFMLQQGKYVADVAYFIGEDAPKMTGITDPALPAGYSFDYINAEVIQTRMKVKDGRMVLPDGMSYKLLVLPKLKTMRPELLAKIKELVAQGANILGPAPERSPSLANFPEADAKVKRMVTELWGNVNGTTIKTRKLGKGTIMSGMDMKLALNALNILPDFKTNTTDPVLFIHRSGPQAELYFISNQSEKQITFSPTFRSVDMQPELWDPVTGKTRVLSELSANGSSTTIPLTLEPLQSIFVVFRNPLVASPIRAINFPEAKTIEEINGPWKVTFNSQMRGPEKPVMFDTLIDWTKRPEESIKYYAGTAVYSNSFRATKPVKGERIYLYFSEVSVMAKVKVNGTDVGGMWTAPWRVDITDAIISGVNTLDISVVNNWVNRLVGDSKLPEAKRKTWTNNNPYTPDSKLVPSGLTGKVVVKTIKY

Columns and labels:
Assay type in all cases: biochemical, Quillaja saponaria
[1] = Experiment 6-1: specificity of rhamnosidases towards other rhamnose residues (C3 saccharide rhamnose, C28 saccharide rhamnose); settings: TBE 2%, pH 7.5, 30 degC, 18 h; LCMS/MS; negative controls 0.18, 0.17
[2] = Experiment 6-1: screening of rhamnosidases for derhamnosylation of saponins in treated bark extract (2%), desglucosyl-QS-17 2134 to QS-21 1988 (PAR %); settings: TBE 2%, pH 7.5, 30 degC, 18 h; TIC peak area ratio percent, LCMS/MS; negative controls 2.719, 2.158
[3] = Experiment 6-1: screening of rhamnosidases for derhamnosylation of saponins in treated bark extract (2%), QS-17 2310 to QS-18 2164 (PAR %); settings: TBE 2%, pH 7.5, 30 degC, 18 h; TIC peak area ratio percent, LCMS/MS; negative controls 3.061, 2.429
[4] = Experiment 6-1: screening of rhamnosidases for derhamnosylation of saponins in treated bark extract (2%), QS-17 2296 to QS-18 2150 (PAR %); settings: TBE 2%, pH 7.5, 30 degC, 18 h; TIC peak area ratio percent of rhamnosylated starting saponin to derhamnosylated product, LCMS/MS; negative controls 4.876, 5.225

Molecule	ratio PP/QS-21 [1]	Peak75 (PAR %) [2]	Peak57 (PAR %) [3]	QS-17 (PAR %) [4]
B1	0.18	2.599%	3.383%	4.871%
B2	0.16	2.444%	2.852%	4.834%
B3	0.17	2.120%	2.889%	4.916%
B4	0.18	2.410%	2.941%	4.916%
B5	0.18	2.498%	3.326%	4.872%
B6	0.17	2.538%	2.658%	4.834%
